In article PMC6596994 (Nature, 2019):
Numbering of substitutions follows the chain as printed. Numbers in names are those of the source. Where two headings read alike, the source gives them in different places.

How the values were obtained:
[1] = target: T1, Mouse TBK1 (1–657, S172A) (mouse, UniProt Q9WUN2 1-657, S172A); assay: SPR
T1 sequence: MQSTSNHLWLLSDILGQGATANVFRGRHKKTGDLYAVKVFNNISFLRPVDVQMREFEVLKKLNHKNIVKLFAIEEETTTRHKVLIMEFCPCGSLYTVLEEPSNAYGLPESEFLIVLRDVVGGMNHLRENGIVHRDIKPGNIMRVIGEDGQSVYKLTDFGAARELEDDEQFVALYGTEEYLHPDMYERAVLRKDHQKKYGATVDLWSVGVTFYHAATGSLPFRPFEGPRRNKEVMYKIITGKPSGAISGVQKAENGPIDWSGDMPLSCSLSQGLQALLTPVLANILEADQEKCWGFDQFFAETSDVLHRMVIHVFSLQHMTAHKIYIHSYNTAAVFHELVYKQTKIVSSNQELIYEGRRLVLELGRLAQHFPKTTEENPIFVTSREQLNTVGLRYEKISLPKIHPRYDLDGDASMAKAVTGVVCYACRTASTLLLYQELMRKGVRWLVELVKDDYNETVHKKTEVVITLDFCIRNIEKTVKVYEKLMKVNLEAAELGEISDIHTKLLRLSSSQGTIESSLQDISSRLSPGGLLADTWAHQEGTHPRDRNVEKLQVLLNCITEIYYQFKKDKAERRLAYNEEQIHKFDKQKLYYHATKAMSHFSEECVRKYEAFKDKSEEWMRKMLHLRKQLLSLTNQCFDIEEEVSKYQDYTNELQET

[2] = target: T2, Human TBK1 (1–657, S172A) (human, UniProt Q9UHD2 1-657, S172A); assay: SPR
T2 sequence: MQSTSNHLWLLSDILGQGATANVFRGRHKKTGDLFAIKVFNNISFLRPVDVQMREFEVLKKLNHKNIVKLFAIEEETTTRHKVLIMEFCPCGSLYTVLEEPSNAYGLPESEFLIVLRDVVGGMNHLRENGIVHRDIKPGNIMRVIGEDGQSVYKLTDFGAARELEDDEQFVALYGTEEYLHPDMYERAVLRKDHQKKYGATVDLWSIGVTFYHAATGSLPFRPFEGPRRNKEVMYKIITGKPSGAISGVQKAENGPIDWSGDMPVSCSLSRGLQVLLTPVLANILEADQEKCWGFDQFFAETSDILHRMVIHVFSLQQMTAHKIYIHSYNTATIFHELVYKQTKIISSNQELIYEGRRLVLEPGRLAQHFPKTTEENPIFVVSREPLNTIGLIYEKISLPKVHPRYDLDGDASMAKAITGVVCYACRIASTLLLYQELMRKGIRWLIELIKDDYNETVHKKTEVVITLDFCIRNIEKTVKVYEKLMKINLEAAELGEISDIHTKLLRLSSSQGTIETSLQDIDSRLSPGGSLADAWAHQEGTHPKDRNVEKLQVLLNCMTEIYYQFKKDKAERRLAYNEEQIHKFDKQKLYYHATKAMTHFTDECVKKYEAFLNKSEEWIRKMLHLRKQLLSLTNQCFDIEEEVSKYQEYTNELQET

[3] = target: T1, Mouse TBK1 (1–657, S172A); assay: SPR; remark: listed apart in the source
[4] = target: T2, Human TBK1 (1–657, S172A); assay: SPR; remark: listed apart in the source
[5] = target: T3, Mouse TBK1 (1–657) (mouse, UniProt Q9WUN2 1-657); assay: SPR
T3 sequence: T1 sequence with A172S

[6] = target: T4, Human TBK1 (residue 1–657, S172E, D135N) (human, UniProt Q9UHD2 1-657, S172E | D135N); assay: crystal structure
T4 sequence: T2 sequence with D135N, A172E

B1: p-hSTING (155–379) (domain or fragment)
chain: VAHGLAWSYYIGYLRLILPELQARIRTYNQHYNNLLRGAVSQRLYILLPLDCGVPDNLSMADPNIRFLDKLPQQTGDHAGIKDRVYSNSIYELLENGQRAGTCVLEYATPLQTLFAMSQYSQAGFSREDRLEQAKLFCRTLEDILADAPESQNNCRLIAYQEPADDSSFSLSQEVLRHLRQEEKEEVTVGSLKTSAVPSTSTMSQEPELLISGMEKPLPLRTDFS
Kd [1]: 12.5 µM
Kd [2]: 20 µM
Kd [3]: 9.1 µM
Kd [4]: 11 µM
Kd [5]: 13.3 µM

B2: human STING CTD (residues 155 to 379, T376E, F378M, S379W), crystallised (domain or fragment)
chain: B1 chain with T222E, F224M, S225W
binding result [6]: binds
